Test results as given in patent US20250145679A1.

How the values were obtained:
[1] = target: human lymphoma (HH) cell line (human); assay: binding to HH cells, dose-dependent (FIG. 5); receptor on the cells not named
[2] = target: T1, IL-2/15Rβ (CD122) ECD (human) (UniProt P14784); assay: SPR, Biacore 8K, complex captured on anti-human Fc CM5 chip, receptor ECD-His injected; ka and kd printed as NA
T1 sequence: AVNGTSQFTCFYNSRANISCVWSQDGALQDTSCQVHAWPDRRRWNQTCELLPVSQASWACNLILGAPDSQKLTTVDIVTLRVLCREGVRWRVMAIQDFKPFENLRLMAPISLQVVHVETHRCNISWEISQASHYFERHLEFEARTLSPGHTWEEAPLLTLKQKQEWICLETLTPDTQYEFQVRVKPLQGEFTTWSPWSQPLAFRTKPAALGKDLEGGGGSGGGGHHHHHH

B1: W327151-BMK1 (XENP24306) (Fc fusion, part only; not given: IL-15Ralpha-Fc chain, linker and Fc, not shown: a dimerising Fc or GST)
chain, part: NWVNVISDLKKIEDLIQSMHIDATLYTESNVHPSCKVTAMKCFLLELQVISLESGDASIHDTVQDLIILANNSLSSNGNVTESGCKECEELEEKNIKEFLQSFVHIVQMFINTS
- EC50 [1]: 0.172 µM
- Kd [2]: 8.58 µM
